Reference: patent US20250223354A1 (BIOTHEUS, published 2025)

Assays:
[1] = target: T1, cynomolgus monkey TIGIT-his protein (cynomolgus monkey); experiment: BLI (ForteBio), IgG on AHQ sensor, 100 nM TIGIT-his, monovalent, 1:1 model
T1 construct: also called Cynomolgus TIGIT-his; not shown: his tag
Description: (§1) Biofilm layer optical interference technology (ForteBio) was used to determine the binding and dissociation […] values of the anti-TIGIT monoclonal antibodies obtained in Example 1 to human, cynomolgus monkey and mouse TIGIT. Fortebio affinity measurements were performed according to existing methods (Este, P et al., High throughput solution-based measurement of antibody-antigen affinity and epitope binning. Mabs, 2013.5(2): p 270-8).
(§2) The antibody-loaded sensor was incubated in 100 nM TIGIT-his antigen to the plateau phase, and then the sensor was transferred to an analysis buffer and incubated for at least 2 minutes for measuring dissociation rate. The kinetic analysis was performed using a 1:1 binding model.

human TIGIT-his protein = target: T2, human TIGIT-his protein (human, UniProt Q495A1 22-141); experiment: as above
T2 construct: not shown: his tag
T2 sequence: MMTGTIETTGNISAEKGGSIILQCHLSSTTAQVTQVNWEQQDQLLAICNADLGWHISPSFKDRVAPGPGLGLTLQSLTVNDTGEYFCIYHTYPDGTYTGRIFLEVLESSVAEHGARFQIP
Description: as §1, §2

[2] = target: T3, human TIGIT expressed on cells (human, UniProt Q495A1 22-244); experiment: flow cytometry blocking assay: binding of human CD155 protein with mouse IgG2a Fc tag to CHO cells overexpressing human TIGIT, median fluorescence intensity APC-A; unit from the concentration axis
T3 construct: whole, on cells; cDNA encoding human TIGIT in pCHO1.0 for CHO cells; also called CHO-huTIGIT cells
T3 sequence (looked up): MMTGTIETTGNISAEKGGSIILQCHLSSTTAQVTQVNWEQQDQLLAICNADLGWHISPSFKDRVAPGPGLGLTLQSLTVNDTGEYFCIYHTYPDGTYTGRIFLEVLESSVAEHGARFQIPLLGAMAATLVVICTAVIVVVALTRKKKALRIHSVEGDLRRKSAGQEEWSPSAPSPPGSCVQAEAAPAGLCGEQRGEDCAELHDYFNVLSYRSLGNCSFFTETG
Description: (§3) Specifically, the CHO-huTIGIT cells were expanded and adjusted to a cell density of 2×10⁶ cells/mL, added to a 96-well flow plate at 100 μL/well, and centrifuged for later use. The purified monoclonal antibodies were diluted 3-fold with PBS starting at 400 nM for a total of 12 concentration gradients. The diluted sample was added at 60 μL/well to the cells-carrying 96-well flow plate, and incubated at 4° C. for 30 minutes. […] APC-conjugated goat anti-mouse IgG antibody diluted 100-fold with PBS was added at 100 μL/well, incubated at 4° C. for 30 minutes, and washed twice with PBS. Cells were resuspended with PBS at 100 μL/well, and detected on a CytoFlex flow cytometer, and the corresponding MFI was calculated.

[3] = target: T3, human TIGIT expressed on cells; experiment: flow cytometry on activated human primary T cells (TIGIT), readout positive cell (%); unit from the concentration axis
Source text: The binding activity of the anti-TIGIT antibody of the present invention to TIGIT on the surface of activated T cells was detected based on the flow cytometry detection method.
Specifically, human PBMC were sorted according to the experimental protocol provided by […] Company (stemcell, Cat. No.: #17951C) to obtain human total T cells. […] The activated T cells were adjusted to an appropriate cell density and added to a 96-well flow cytometry plate. After centrifugation, the gradiently diluted sample to be tested was added, and incubated at 4° C. for 30 minutes. Washing was carried out twice with PBS, and a fluorescent secondary antibody diluted to an appropriate concentration was added, incubated at 4° C. for 30 minutes, and washed twice with PBS. […]

[4] = target: T3, human TIGIT expressed on cells; experiment: flow cytometry, competition with human CD155-mouse IgG2a Fc (2 ug/mL) on CHO-huTIGIT cells
Description: as §3

[5] = target: T4, cynomolgus TIGIT overexpressed on CHO cells (cynomolgus, UniProt A0A7N9I9V4 89-312); experiment: flow cytometry, CHO-cynoTIGIT cells
T4 construct: whole, on cells; also called CHO-cynoTIGIT cells
T4 sequence (A0A7N9I9V4 entry or part of it): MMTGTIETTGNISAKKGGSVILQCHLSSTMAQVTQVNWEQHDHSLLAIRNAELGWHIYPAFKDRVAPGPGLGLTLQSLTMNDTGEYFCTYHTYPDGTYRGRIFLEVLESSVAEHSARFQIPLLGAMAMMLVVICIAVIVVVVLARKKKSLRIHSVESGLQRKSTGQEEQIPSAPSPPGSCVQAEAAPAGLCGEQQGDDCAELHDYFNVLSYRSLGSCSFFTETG
Source text: (§4) Specifically, CHO cells overexpressing human TIGIT (CHO-huTIGIT cells), CHO cells overexpressing cynomolgus TIGIT (CHO-cynoTIGIT cells) and CHO cells overexpressing mouse TIGIT (CHO-muTIGIT cells) were generated by transfection of the pCHO1.0 vector (purchased from Invitrogen) with cDNA encoding human TIGIT, cynomolgus TIGIT and mouse TIGIT cloned into the multiple cloning site (MCS), respectively, followed by pressure screening. The overexpressing cells were expanded and adjusted to an appropriate cell density, and added to a 96-well flow cytometry plate. After centrifugation, the cells were added with a gradiently diluted sample to be tested, and incubated at 4° C. for 30 minutes. The cells were washed twice with PBS, and added with a fluorescent secondary antibody correspondingly diluted to an appropriate concentration, then incubated at 4° C. for 30 minutes, and washed twice with PBS. Cells were resuspended with PBS, and detected on a CytoFlex flow cytometer, and the corresponding MFI was calculated. Graphpad software was used for graphical analysis to obtain EC₅₀ values.

[6] = target: T3, human TIGIT expressed on cells; experiment: flow cytometry on CHO cells overexpressing human TIGIT, median fluorescence intensity PE-A; unit from the concentration axis
Source text: as §4

[7] = target: T4, cynomolgus TIGIT overexpressed on CHO …; experiment: flow cytometry on CHO cells overexpressing cynomolgus TIGIT, median fluorescence intensity PE-A; unit from the concentration axis
Source text: as §4

[8] = target: T3, human TIGIT expressed on cells; experiment: flow cytometry, CHO-huTIGIT cells
Source text: as §4

T1 sequence (chain, as listed by the source): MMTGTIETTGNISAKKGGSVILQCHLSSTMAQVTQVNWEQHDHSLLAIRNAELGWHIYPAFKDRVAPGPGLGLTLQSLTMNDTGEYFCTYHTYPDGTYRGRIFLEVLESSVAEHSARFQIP

Kd [1]: 3.5 nM
Kd (human TIGIT-his protein): 0.87 nM
IC50 [2]: 0.634 nM
EC50 [3]: 0.274 nM
IC50 [4]: 0.63 nM
EC50 [5]: 4.18 nM
EC50 [6]: 1.34 nM
EC50 [7]: 4.18 nM
EC50 [8]: 1.35 nM
B1: Tiragolumab (antibody, V domains shown)
VH: EVQLQQSGPGLVKPSQTLSLTCAISGDSVSSNSAAWNWIRQSPSRGLEWLGKTYYRFKWYSDYAVSVKGRITINPDTSKNQFSLQLNSVTPEDTAVFYCTRESTTYDLLAGPFDYWGQGTLVTVSS
VL: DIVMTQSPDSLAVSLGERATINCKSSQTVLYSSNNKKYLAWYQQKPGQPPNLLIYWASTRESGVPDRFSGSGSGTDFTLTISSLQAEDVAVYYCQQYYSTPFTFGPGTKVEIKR
